Measurements published in publication PMC10542519.

Columns and labels:
[1] = biological target: PhiPA3 ChmC-ΔC (residues 204-251 removed) (Pseudomonas phage PhiPA3); experiment: SEC-MALS
[2] = biological target: PhiPA3 Chimallin C (ChmC; gp61), full-length (Pseudomonas phage PhiPA3); experiment: SEC-MALS

Substance	stoichiometry N [1]	stoichiometry N [2]
PhiPA3 ChmC-ΔC (residues 204-251 removed) (domain or fragment)	4	
PhiPA3 Chimallin C (ChmC; gp61), full-length (natural protein)		4
